In publication PMC9728169, “Enzymatic Biotransformation of Ginsenoside Rb2 into Rd by Recombinant α-L-Arabinopyranosidase from Blastococcus saxobsidens” (Journal of Microbiology and Biotechnology, 2019):

Substrate: [H][C@@]1(O[C@@H]2[C@@H](O)[C@H](O)[C@@H](CO)O[C@@]2([H])O[C@H]2CC[C@]3(C)[C@@]4([H])C[C@@H](O)[C@]5([H])[C@@]([H])([C@](C)(CCC=C(C)C)O[C@@H]6O[C@H](CO[C@@H]7OC[C@H](O)[C@H](O)[C@H]7O)[C@@H](O)[C@H](O)[C@H]6O)CC[C@@]5(C)[C@]4(C)CC[C@@]3([H])C2(C)C)O[C@H](CO)[C@@H](O)[C@H](O)[C@H]1O
Test: hydrolysis of arabinopyranose moiety of Rb2 (kinetic read-out not detailed)
Format: biochemical, Blastococcus saxobsidens
Settings: enzyme 10 μg/ml; substrate range 0.1 mM to 5 mM as printed (unit μM doubtful); pH and temperature not stated for this constant; unit of the source corrected

B1: AbpBs (α-L-arabinopyranosidase) (Blastococcus saxobsidens) (protein)
chain: MRRIPFNRGWETRAHANFFAEMHGAAAPWQPVTLPHDAALGRTRDAANGAGSGYVPGGVYEYRTTLAAPAEYRDRRVLLEFEGVYRTAMVYVNGSLAGSWATGYTGFVVDLDDHLRYGGDNEIRVVCRAHQDSRWYSGAGIHRPVHLVVGPLTHLALDGVRVTTTEVDAEFAVVEVATTVEHDGRGLRTLELVTEVRDGEGSAVATATSPVTVLPGEPAVVRQRLLLPTPALWGPDSPSLYTAAVVLRDGGTDVDDDAVSFGVRTLSLDPERGLRINGEPIKLRGACVHSDNGVLGAATIGRAEERRVQLLKEAGFNALRSAHNPMSRAMLDACDRYGVLVMDELTDVWTESKTDFDAALDFPQWWERDVEAMVAKDVNHPSVVFYSIGNEIPEVAKPHGAVWSRRLAEKVRALDGTRFVTNGINAMLAVIGEAKAAEEQAGINTMLTDMGAFMDELSASELVATRTAEAYDVLDAAGMNYMEARYQLDRTLFPRRVIVGAETFAGKIDRLWRLVLDHPHVIGDFTWTGWDYLGEAGVGRVAAADDPTAGQFGAPYPWLLAHVGDIDITGHRRPASYYREIVFGRRRDPYIAVLRPERHGRELSATPWAWSDTVGSWSWAGAEEKPVTVEVYSDADEVELLLDGTSLGTAKAGEANRFRAAFEVTYAPGELTAVSRTGGQETGRCSLRSATGPLALAAAADRPVVRADDTDLAHVTLTLEDADGVVALGVDREVTVTVEGPGVLQGFGSAAPATEESYLDDVHTTFDGRALAVVRPTGAGTITLTATAPGCPPVSLGIEAR
notes: pGEX-4T-1 N-terminal GST fusion in E. coli BL21 (DE3), GST removed by thrombin (purified enzyme); primer-encoded N-terminus MRRIPF
B1 gave a Km of 920 µM.
